Test results taken from the Human Domainome abundance scans (Beltran et al. 2025).

B1: Formin-binding protein 4, residues 200 to 261; numbered along this chain, Q8N3X1 (parent)
chain: SGWQYDTQCSLAGVGIEMGDWQEVWDENTGCYYYWNTQTNEVTWELPQYLATQVQGLQHYQP

Variants of: B1
Test: abundance fitness (aPCA) (normalised: wild type 0, dead -1); higher = more abundant; growth selection in yeast, the domain comes from the species named
Conditions: Homo sapiens

Abundance fitness of substitutions, site by site:
C31: T -0.094, N 0.107, Y -0.063, H -0.017, E -0.422, I -0.326, S 0.031, F 0.083, R 0.165, K 0.066, P -0.742, M -0.127, G -0.125, A 0.01, W -0.662, V -0.129, Q -0.038, L -0.183
T29: K 0.311, H -0.017, N -0.086, Q -0.125, P -0.172, W -0.362, Y 0.019, F -0.074, S 0.123, A 0.162, R 0.117, I -0.382, M -0.1, L -0.036, C -0.066, G -0.147
Y33: L -0.477, Q -0.389, V -0.447, M -0.316, R -0.201, K 0.016, P -0.676, W -0.52, F -0.281, S -0.212, T -0.335, D -0.706, G -0.576, C -0.213, A -0.691, H -0.169, I -0.566, E -0.458
G30: I 0.052, F -0.381, A -0.095, Q 0.049, N -0.15, V -0.191, S 0.006, H -0.718, R 0.078, Y -0.473, L -0.4, K 0.129, W -0.23, P -0.219
W25: S -0.294, A -0.207, G -0.557, K -0.014, T -0.381, I -0.251, C -0.263, D -0.252, P -0.376, H -0.256, L -0.119, R -0.287, Y -0.209, E -0.414, V -0.358, N -0.853, M -0.129, F -0.142
D26: G -0.373, I -0.593, E -0.148, S -0.007, V -0.384, T -0.178, W -0.256, F -0.296, Y -0.322, C -0.228, N -0.084, A -0.176, M -0.09, P -1.14, R -0.515, L -0.5, Q -0.181, K -0.345
Q38: D 0.247, S -0.019, W -0.216, V -0.126, F -0.346, G -0.077, Y 0.128, L -0.133, N -0.266, R 0.042, P -0.541, H -0.022, I -0.086, T 0.254, K 0.138, M -0.11, E -0.081
T43: C -0.02, N -0.263, Y -0.332, G -0.401, K -0.172, E -0.053, M -0.317, S -0.021, W -0.584, F -0.34, L -0.092, A -0.1, R -0.262, Q -0.018
N28: T -0.153, H -0.229, P -0.133, K 0.108, W -0.291, S -0.151, Y -0.245, I 0.281, D -0.002, V -0.507, F -0.329, L -0.233, E -0.07, C -0.022, G 0.073, M -0.32
Y34: F -0.18, L -0.796, E -0.791, W -0.449, H -0.873, Q -0.946, P -1.21, M -0.962, S -0.862, K -0.726, D -1, C -0.927, A -0.866, V -0.669, T -0.847, G -0.664
T37: S 0.019, E -0.297, D -0.171, L -0.133, Y -0.243, R -0.111, K 0.09, V -0.058, G -0.135, I -0.022, N -0.166, F -0.151, Q 0.01, C 0.089, A 0.061, H -0.009
E41: A -0.109, Y -0.231, N -0.364, V -0.323, T -0.283, C -0.409, M -0.34, W -0.378, L -0.111, Q 0.014, S -0.349, H -0.472, G -0.471, K -0.081, F -0.556, I -0.324, R -0.158, D -0.268, P -0.776
N40: G -0.037, H -0.032, V -0.556, C -0.505, M -0.298, Q -0.056, I -0.607, F -0.37, W -0.34, A -0.08, R -0.157, T -0.096, P -0.931, Y -0.564, S -0.057, E -0.04
V42: M 0.12, W -0.457, E 0.063, C -0.242, I -0.188, L -0.202, N -0.203, Y -0.453, S 0.02, P -0.415, Q 0.308, F -0.148, K 0.084, R 0.095
E27: C -0.213, Q -0.168, N -0.127, R -0.112, V -0.373, D 0.101, T -0.199, H 0.516, W -0.601, A 0.043, L -0.429, Y -0.288, S -0.187, F -0.319, M -0.381, I -0.174, P -0.349, G -0.066, K 0.076
W35: K 0.355, A 0.196, V -0.104, L -0.112, T 0.172, I 0.09, G -0.297, D -0.159, E 0.328, R 0.184, M -0.189, P -1.04, S 0.066, H 0.166, F 0.112, Y -0.271
T39: C -0.307, E -0.37, D -0.151, S 0.017, Y -0.579, H -0.34, L -0.461, F -0.577, Q -0.226, R -0.306, V -0.877, M -0.386, A -0.411, P -0.873, N -0.093, W -0.568, K -0.123, I -0.354, G -0.362
Y32: G -0.678, A -0.502, H -0.16, K -1.02, C -0.478, E -0.673, L -0.633, Q -0.818, P -0.417, I -0.3, V -0.677, R -0.792, S -0.567, N -0.487, T -0.773, M -0.511, F -0.009, W -0.543
N36: M -0.603, S -0.553, L -0.861, Y -0.961, W -0.814, A -0.645, V -1.02, K -0.663, D -0.612, I -1.13, G -0.64, F -0.744, P -0.897, E -0.287, C -0.236, Q -0.121, R -0.657, T -0.993
V24: I -0.399, Y -0.145, H -0.163, Q 0.097, G -0.269, F -0.168, R -0.145, N -0.257, P -1.05, L -0.074, E -0.217, T -0.036, M -0.361, W -0.437
